Here are results for one molecule from patent publication US8241627B2, “Modified polypeptides stabilized in a desired conformation and methods for producing same” (The Center for Blood Research, Inc., priority 2000, dated 2012).

For assay [1], the target named is T1, ICAM-1 (Homo sapiens, UniProt P05362). The assay is described as follows: Binding of LFA-1 or isolated I-domain transfectants to immobilized ICAM-1. It is filed as cell-based. The arrangement: ICAM-1 was purified from human tonsil; from tissue; host or cells: human tonsil. The protocol:
Clones of the transfectants that expressed similar levels of cell surface LFA-1, as determined by flow cytometry using monoclonal antibody TS2/4 (FIG. 3B), were tested for their ability to bind to immobilized ICAM-1, as previously described (Lu, C and Springer, T A (1997) J Immunol 159:268-278).
Briefly, ICAM-1 was purified from human tonsil, and coated to 96-well plates as described previously (Lu, C and Springer T A, (1997) J Immunol 159:268-278). Cells were labeled with a florescence dye 2′,7′-bis-(carboxyethyl)-5(and-6)-carboxyfluorescein, acetoxymethyl ester (BCECF-AM), and resuspended to 1×10^6/ml in L15/FBS. 50 μl cell suspension was mixed in ICAM-1 coated wells with an equal volume of L15/FBS in the absence or presence of monoclonal antibody (CBRLFA-1/2, 10 μg/ml). Monoclonal antibodies were used at final concentration of 1:20 hybridoma supernatant, 1:200 ascites, or μg/ml purified IgG. For testing the effect of divalent cations, BCECF-AM-labeled cells were washed 2× with TS buffer, pH7.5 (20 mM Tris, pH 7.5, 150 mMNaCl) containing 5 mM EDTA, followed by 2 washes with TS buffer, pH7.5. Cells were then resuspended to 5×10^5/ml in the TS buffer, pH7.5 supplemented with 1 mM MgCl2/CaCl2, MgCl2, MnCl2 mM EDTA, and 100 μl cell suspension was added to ICAM-1 coated wells. After incubation at 37° C. for 30 minutes, unbound cells were washed off on a Microplate Autowasher (Bio-Tek Instruments, Winooski, Vt.). The fluorescence content of total input cells and the bound cells in each well was quantitated on a Fluorescent Concentration Analyzer (IDEXX, Westbrook, Me.). The bound cells were expressed as a percentage of total input cells per sample well.
For generating stable K562 transfectants that express the I-domain on the surface, 20 μg of SspI-linearized pcDNA3.1/Hygro(+) containing the sequences encoding the I domain and the PDGFR transmembrane domain was used to transfect K562 cells by electroporation as described above. Transfectants were selected for resistance to 100 μg/ml hygromycin B, and were further subcloned by cell sorting and limiting dilution; clones that expressed similar levels of surface wild-type and mutant I domain-PDGFR were selected for functional studies. Stable cell lines were maintained in RPMI medium 1640 supplemented with 10% FBS and 100 μg/ml hygromycin B. Cell surface expression of the isolated I-domains was determined by flow cytometry using antibody TS1/22 to the I-domain (FIG. 7). Two clones from each transfectant were selected and tested for binding to immobilized ICAM-1, and similar results were obtained with each of the two clones (FIG. 8A).
If the constitutive ligand binding activity of mutant K287C/K294C is due to the formation of a disulfide bond between the introduced C287 and C294, disruption of the disulfide bond with a reducing agent would abolish ligand binding ability of the mutant. Accordingly, the transfectants were treated with the reducing agent DTT (10 mM) in L15/FBS containing Mg^2+ and Ca^2+, and the ability of transfectants to bind to ICAM-1 was assessed.
Furthermore, the effect of divalent cations on ligand binding of the isolated I-domains expressed on the surface of K562 transfectants was tested. The binding reactions were performed in HEPES/NaCl/glucose (20 mM HEPES, pH 7.5, 140 mM NaCl, 2 mg/ml glucose) supplemented with 1 mM […], 1 mM Mg^2+, or 1 mM EDTA.
Target sequence in this assay (P05362 28-532): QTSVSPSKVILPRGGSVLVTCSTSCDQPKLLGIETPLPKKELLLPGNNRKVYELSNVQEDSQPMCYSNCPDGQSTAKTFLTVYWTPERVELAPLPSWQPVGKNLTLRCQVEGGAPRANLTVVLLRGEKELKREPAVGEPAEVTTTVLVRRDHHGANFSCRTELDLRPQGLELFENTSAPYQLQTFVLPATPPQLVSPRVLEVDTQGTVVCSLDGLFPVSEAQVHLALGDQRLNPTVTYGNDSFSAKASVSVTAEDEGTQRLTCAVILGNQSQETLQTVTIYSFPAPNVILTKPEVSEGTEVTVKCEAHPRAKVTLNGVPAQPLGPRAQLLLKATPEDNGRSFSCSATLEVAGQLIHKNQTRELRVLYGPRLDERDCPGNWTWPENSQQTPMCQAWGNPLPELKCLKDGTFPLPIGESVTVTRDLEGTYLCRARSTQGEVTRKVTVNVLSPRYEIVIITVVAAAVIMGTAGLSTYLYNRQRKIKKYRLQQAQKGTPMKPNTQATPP

Assay [2] deals with K562 cells stably expressing wild-type LFA-1. Briefly: Inhibition by soluble I-domains of adhesion of LFA-1 expressing K562 cells to immobilized ICAM-1. The class given is cell-based, human. To be noted: LFA-1 activated by CBRLFA-1/2; 40 minutes at 37° C. The protocol:
The activity of the soluble open I-domain to inhibit LFA-1I-dependent adhesion was tested. In one study, K562 cells stably expressing wild-type LFA-1 were fluorescently labeled by BCECF and LFA-1 on the cell surface was activated by the activating monoclonal antibody, CBRLFA-1/2 in L15 media supplemented with FCS. The cells were subsequently incubated in ICAM-1 coated 96-well plastic plates in the presence or absence of 1-domains. After incubation for 40 minutes at 37° C., unbound cells were washed off on a Microplate Autowasher. The fluorescence content of total input cells and the bound cells in each well was quantitated on a Fluorescent Concentration Analyzer. The bound cells were expressed as a percentage of total input cells per sample well.

Assay [3] deals with T2, ICAM-2 (Homo sapiens, UniProt P13598).
T2 sequence (P13598 25-223 limits assumed): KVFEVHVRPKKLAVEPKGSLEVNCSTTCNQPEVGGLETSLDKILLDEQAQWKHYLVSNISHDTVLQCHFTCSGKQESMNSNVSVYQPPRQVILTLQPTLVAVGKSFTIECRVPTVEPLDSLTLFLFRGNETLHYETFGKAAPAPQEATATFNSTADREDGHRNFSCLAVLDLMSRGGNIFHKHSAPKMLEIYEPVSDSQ
Briefly: BIAcore binding of soluble αL I-domains to ICAM-2. The following applies: 1:1 interaction model. The protocol:
(§1) Briefly, recombinant mutant αL I-domain stabilized in the open conformation (K287C/K294C), or recombinant wild-type αL I-domain from amino acid residue G128 to Y307, were cloned into pET11b (Novagen) and expressed in E. coli induced with 1 mM IPTG for 4 hours. The recombinant proteins were purified from inclusion bodies by solubilization of inclusion bodies in 6M guanidine HCl and were refolded by dilution in the presence of 0.1 mM Cu^2+/phenanthrolin to enhance formation of disulfide bonds. Protein was concentrated by ammonium sulfate precipitation, dialyzed, and purified over a monoQ ion-exchange column. […] The recombinant proteins were then purified by gel filtration and concentrated by Centriprep. For BIAcore™ analysis, recombinant ICAM-1, ICAM-2 and ICAM-3 Fc chimeras were immobilized on the BIAcore™ sensor chip by an amine-coupling method. Recombinant αL I-domains were flowed in, and BIAcore™ assays were performed with Tris-buffered saline supplemented with 1 mM MgCl2 or 2 mM EDTA, at a flow rate of 10 μl/minute at 25° C.
For orientation: Surface plasmon resonance follows binding to a sensor surface in real time, without labels.

The subject of assay [4] is murine T lymphoma cell line EL-4. Briefly: PMA-induced LFA-1-dependent homotypic aggregation of EL-4 cells. The class given is cell-based. The following applies: 50 ng/ml PMA, 2 hours at 37° C. As to the method: Cells were incubated in a 96 well plate in the presence of 50 ng/ml PMA and varying amounts of soluble I-domains.
For assay [5], the target named is T1, ICAM-1. Briefly: BIAcore binding of soluble αL I-domains to ICAM-1. The protocol:
as §1
Target sequence in this assay (P05362 28-480 limits assumed): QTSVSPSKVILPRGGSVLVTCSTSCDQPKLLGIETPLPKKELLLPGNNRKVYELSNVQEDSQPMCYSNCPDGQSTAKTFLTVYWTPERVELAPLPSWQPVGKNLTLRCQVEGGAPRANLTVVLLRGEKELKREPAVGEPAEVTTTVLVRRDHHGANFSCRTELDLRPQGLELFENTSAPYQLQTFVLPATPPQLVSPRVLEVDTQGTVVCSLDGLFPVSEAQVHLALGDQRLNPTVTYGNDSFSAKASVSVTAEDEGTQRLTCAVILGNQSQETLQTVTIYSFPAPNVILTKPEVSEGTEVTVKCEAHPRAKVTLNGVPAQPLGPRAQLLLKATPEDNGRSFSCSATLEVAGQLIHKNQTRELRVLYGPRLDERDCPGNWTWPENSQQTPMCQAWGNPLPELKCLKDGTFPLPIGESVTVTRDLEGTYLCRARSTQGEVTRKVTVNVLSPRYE

The mark [6] stands for this setting: BIAcore, 1:1 interaction model, 1 mM MgCl2, 25° C.

B1: K287C/K294C: human αL (LFA-1) I-domain with K287 and K294 replaced by cysteines; high affinity locked open; tested in intact LFA-1, cell-surface and soluble forms (protein)
chain: GNVDLVFLFDGSMSLQPDEFQKILDFMKDVMKKLSNTSYQFAAVQFSTSYKTEFDFSDYVKRKDPDALLKHVKHMLLLTNTFGAINYVATEVFREELGARPDATKVLIIITDGEATDSGNIDAAKDIIRYIIGIGKHFQTKESQETLHKFASKPASEFVCILDTFECLKDLFTELQKKIY
notes: human αL (LFA-1) I-domain with K287 and K294 replaced by cysteines; tested in intact LFA-1, cell-surface and soluble forms
With B1, the “binding of 293T transient transfectants to immobilized ICAM-1” value in assay [1] (293T, no activating antibody) is listed as “constitutively strong binding”. Moreover, the “binding of K562 cells expressing isolated I-domains to immobilized ICAM-1” value in assay [1] (I-domain on cell surface via PDGFR transmembrane domain) was “strong binding”. Moreover, the “binding of isolated I-domain to ICAM-1 after EDTA treatment” value in assay [1] (K562, 1 mM EDTA) was “abolished”. The “binding of K562 stable transfectants to immobilized ICAM-1 with activating mAb CBRLFA-1/2” value in assay [1] (K562, CBRLFA-1/2 10 μg/ml) is recorded as “did not further enhance binding”. Besides, the “binding of K562 transfectants to ICAM-1 in the presence of EDTA” value in assay [1] (K562, intact LFA-1, EDTA) is “abolished”. Besides, in assay [1] (K562, no activating antibody), the “binding of K562 stable transfectants to immobilized ICAM-1” value was “strongly bound”. For the same molecule, the “effect of DTT treatment on binding to ICAM-1” value in assay [1] (K562 transfectants, DTT 10 mM in L15/FBS) was “abolished”. In addition, the “inhibition of adhesion of LFA-1 expressing cells to immobilized ICAM-1” value in assay [2] was “strongly inhibited”. For the same molecule, in assay [3], the “Koff, open I-domain binding to ICAM-2” value is 0.0118 s⁻¹ and the “Kon, open I-domain binding to ICAM-2” value was 23000 M⁻¹ s⁻¹. Also, the “inhibition of PMA-induced LFA-1 dependent homotypic aggregation” value in assay [4] was “inhibited”. For the same molecule, the “interaction of I-domain with ligands in the presence of EDTA” value in assay [5] (2 mM EDTA, ligands ICAM-1, -2, -3) was “abolished”. In addition, in assay [5] (setting [6]), the “Koff, open I-domain binding to ICAM-1” value was found to be 0.0230 s⁻¹ and the “Kon, open I-domain binding to ICAM-1” value is 128000 M⁻¹ s⁻¹. For the same molecule, the “Kon, interaction of αL I-domains with ICAM-1” value in assay [5] (calculated by Koff/KD) was 128000 M⁻¹ s⁻¹. Further, the “Koff, interaction of αL I-domains with ICAM-1” value in assay [5] (curve fitting of dissociation phase, 1:1 binding model) worked out at 0.0230 s⁻¹.
